# Results: the RNAGym collection of RNA variant scans (doi:10.7554/elife.80360)
# B1: CPEB3 Ribozyme (parent)
# chain: GGGGGCCACAGCAGAAGCGUUCACGUCGCGGCCCCUGUCAGAUUCUGGUGAAUCUGCGAAUUCUGCUGU
# Variants of: B1
# Experiment: self-cleavage, relative activity (ratio to wild type); higher = more cleavage; co-transcriptional
row,Variant,self-cleavage
1,A42G U67G,0.897
2,A42G U67A,0.86
3,A42G U67C,0.957
4,A42U C54A,0.834
5,A42U C54G,0.56
6,G41U G50C,0.54
7,A42C G56C,0.325
8,A42C G56U,0.568
9,G41A U64G,0.501
10,G41A U64C,0.385
11,G41U A52G,0.749
12,G41U A52C,0.431
13,A42G U61G,0.359
14,A42C C66U,0.96
15,A42C C66G,0.661
16,A42U C57U,0.436
17,A40U U55G,0.839
18,A40U U55A,0.936
19,A40U U55C,0.828
20,G41C U69G,0.959
21,G41C U69C,1.01
22,A40U C66U,0.729
23,A40U C66G,0.325
24,A40U C66A,0.397

row,Variant,self-cleavage
1,A40U G68U,0.877
2,A40U G68A,0.937
3,A40U G68C,0.876
4,G41C U43G,0.25
5,G41C U43C,0.486
6,G41C U43A,0.31
7,A42C U46G,0.929
8,A42U G47U,1.02
9,A42U G47C,0.993
10,G41A U53G,0.566
11,G41A U53A,0.65
12,G41U G48C,0.952
13,G41U G48U,0.99
14,G41U G68A,0.931
15,G41U G68C,0.93
16,G41U G68U,0.972
17,A42U A60G,0.74
18,A42U A60C,0.219
19,A42U A60U,0.436
20,A42G C54U,0.799
21,G41C A42U,0.504
22,G41C A42C,0.26
23,G41U A60U,0.374
24,G41U A60G,0.612

row,Variant,self-cleavage
1,G41U C63U,0.691
2,G41A A52U,0.683
3,G41A A52G,0.716
4,G41C A52C,0.332
5,A42G A52C,0.854
6,A42G A52U,0.718
7,G41U U55G,0.324
8,A40U U49G,0.816
9,A40U U49C,0.757
10,A40U U49A,0.922
11,A42G U62C,0.647
12,A42U U46C,0.781
13,A40U G41A,0.537
14,G41C A59C,0.225
15,G41C A59G,0.845
16,A42C U67A,0.964
17,A42C U67C,0.97
18,A42U G58C,0.97
19,A42U G58A,0.923
20,G41U U62A,0.506
21,G41U U62C,0.384
22,G41C G65A,0.426
23,G41C G65U,0.327
24,A42U G56A,0.799

row,Variant,self-cleavage
1,A42U G56U,0.517
2,A42C C45U,0.937
3,A42C C45A,0.851
4,A42C C45G,0.819
5,A40U G48C,0.893
6,A40U G48U,0.936
7,A40U U69A,0.964
8,A40U U69G,0.987
9,A40U U69C,1
10,A42G U46G,0.941
11,A42G U46A,0.935
12,G41C G48U,0.966
13,G41C G48C,0.869
14,G41C U64A,0.369
15,G41C U64G,0.426
16,G41A G56U,0.307
17,G41A G56C,0.31
18,G41A U61A,0.463
19,G41A U61G,0.331
20,G41A U62G,0.422
21,G41A U62A,0.474
22,G41A U62C,0.383
23,G41U U46A,0.947
24,G41U U46C,0.752

row,Variant,self-cleavage
1,G41U U46G,0.887
2,A42U G48C,0.947
3,A42U G48A,0.968
4,G41A U69C,1.03
5,G41A U69G,1
6,G41A U69A,0.912
7,A42C U53A,1.03
8,G41U G47C,0.967
9,G41U G47U,0.999
10,A42U C63U,0.876
11,G41C C66G,0.369
12,G41A A51U,0.511
13,G41C U62G,0.363
14,G41C U62C,0.365
15,A42C U55G,0.285
16,A42C U55C,0.328
17,A42C U55A,0.595
18,G41C U49C,0.871
19,G41C U49A,0.988
20,A42C U62C,0.659
21,A42C U62A,0.673
22,A42C U62G,0.757
23,A42G U55C,0.492
24,A42G U55A,0.543

row,Variant,self-cleavage
1,G41C A51U,0.542
2,G41C A51C,0.43
3,A42U,0.965
4,A42C,0.961
5,A42G,0.951
6,G41U G58U,0.939
7,G41U G58A,0.935
8,G41U G58C,0.94
9,A42G G47A,0.955
10,A42G G47U,0.988
11,A42C U61C,0.477
12,A42C U61A,0.742
13,G41U U67C,0.872
14,A42G G48U,0.948
15,A42G G48C,0.989
16,A42G C63U,0.889
17,A42G C63A,0.617
18,A42G C63G,0.583
19,A42G C45A,1.01
20,A42G C45U,0.927
21,A42C U43A,0.778
22,A42C U43G,0.703
23,A42G C57U,0.356
24,A40U U61G,0.286

row,Variant,self-cleavage
1,G41U U49C,0.849
2,A40U U67C,0.845
3,A40U U67G,0.886
4,A40U U67A,0.776
5,G41C G58A,0.772
6,A42U A52U,0.986
7,A42U A52G,0.88
8,A42U A52C,0.945
9,G41C U55C,0.394
10,A42G U44C,0.562
11,A42G U44A,0.822
12,A42U U49C,0.915
13,A42U U49G,0.957
14,G41U A59G,0.933
15,G41U A59C,0.412
16,G41A U43A,0.335
17,G41A U43C,0.416
18,A42C A51G,0.852
19,G41C G47A,0.904
20,G41A U46C,0.706
21,G41A U46A,0.863
22,G41C U67G,0.787
23,G41C U67A,0.716
